Results on five molecules are retold here after patent US20230045262A1 (Hoffmann-La Roche, published 2023).

Like-named read-outs stand apart in the source and are kept apart here.

Usually EC50 stands for the concentration that produces a half-maximal response.

For experiment [1], the target named is T1, human 4-1BB on cells (activated human T cells; HeLa-hu4-1BB-NFκB-luc clone 26; Jurkat-hu4-1BB-NFκB-luc2) (human, UniProt Q07011 24-255). The experiment is described as follows: cell-based or functional assay.
In experiment [2] the target is T1, human 4-1BB on cells (activated human T …). As to the kind of experiment: flow cytometry on Jurkat-hu4-1BB-NFκB-luc2 cells. On the technique in general: A flow cytometer gives signals particle by particle.
The target is the same in experiment [3]. The experiment is described as follows: flow cytometry on activated human CD4+ T cells, PE anti-human Fc secondary.
Experiment [4] has the same target. The experiment is described as follows: flow cytometry on activated human CD8+ T cells, PE anti-human Fc secondary.
The target in experiment [5] is T2, human FAP on cells (WM-266-4; NIH/3T3-huFAP clone 19) (human, UniProt Q12884 1-760).
T2 construct: transfected in NIH/3T3-huFAP clone 19
As to the kind of experiment: flow cytometry on WM-266-4 cells.

Experiment [6] concerns the target T1, human 4-1BB on cells (activated human T …). As to the kind of experiment: cell-based or functional assay. This is another data set of the same source.
Experiment [7] has as its target T3, hu4-1BB-SNAP fusion on Hek293 EBNA cells (human, UniProt Q07011 24-255, labeled with the FRET donor Terbium).
T3 construct: also called hu 4-1BB (TagLite); not shown: SNAP tag
The experiment is described as follows: TagLite FRET competition on hu4-1BB-SNAP cells; competitor 0.6 nM d2-labelled 20H4.9 IgG; 4 h.

Experiment [8] has as its target T2, human FAP on cells (WM-266-4; …). As to the kind of experiment: flow cytometry on NIH/3T3-huFAP clone 19 cells.
For experiment [9], the target named is T1, human 4-1BB on cells (activated human T …). As to the kind of experiment: cell-based or functional assay. This is another data set of the same source.
Experiment [10] concerns the target T3, hu4-1BB-SNAP fusion on Hek293 EBNA cells. As to the kind of experiment: TagLite FRET competition on hu4-1BB-SNAP cells; competitor 0.6 nM d2-labelled 20H4.9 IgG; 4 h. The source holds these as a separate data set.

B1: 2+1 4-1BB (20H4.9)/CEA(A5B7P) human IgG1 PGLALA, (G4S)4, hole-VH (bispecific antibody)
heavy 1: QVQLQQWGAGLLKPSETLSLTCAVYGGSFSGYYWSWIRQSPEKGLEWIGEINHGGYVTYNPSLESRVTISVDTSKNQFSLKLSSVTAADTAVYYCARDYGPGNYDWYFDLWGRGTLVTVSSASTKGPSVFPLAPSSKSTSGGTAALGCLVKDYFPEPVTVSWNSGALTSGVHTFPAVLQSSGLYSLSSVVTVPSSSLGTQTYICNVNHKPSNTKVDKKVEPKSCDKTHTCPPCPAPEAAGGPSVFLFPPKPKDTLMISRTPEVTCVVVDVSHEDPEVKFNWYVDGVEVHNAKTKPREEQYNSTYRVVSVLTVLHQDWLNGKEYKCKVSNKALGAPIEKTISKAKGQPREPQVCTLPPSRDELTKNQVSLSCAVKGFYPSDIAVEWESNGQPENNYKTTPPVLDSDGSFFLVSKLTVDKSRWQQGNVFSCSVMHEALHNHYTQKSLSLSPGGGGGSGGGGSGGGGSGGGGSEVKLVESGGGLVQPGGSLRLSCATSGFTFTDYYMNWVRQPPGKALEWLGFIGNKANGYTTEYSASVKGRFTISRDKSQSILYLQMNTLRAEDSATYYCTRDRGLRFYFDYWGQGTTLTVSS
heavy 2: not shown
light: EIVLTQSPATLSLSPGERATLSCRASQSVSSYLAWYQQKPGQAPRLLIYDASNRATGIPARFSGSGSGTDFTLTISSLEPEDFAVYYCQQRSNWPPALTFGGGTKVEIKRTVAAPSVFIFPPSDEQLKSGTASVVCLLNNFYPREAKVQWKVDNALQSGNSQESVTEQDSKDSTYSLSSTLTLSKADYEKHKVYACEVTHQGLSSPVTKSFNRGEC
notes: also called 4-1BB (20H4.9)×CEA (A5B7P) 2+1; C-terminal VH/VL fusion of the A5B7P clone
On to B1, for which the “EC50 of Jurkat-hu4-1BB-NFκB-luc2 reporter cell line activation curves in the presence of CEA-expressing MKN45 tumor cells” value (from here on “EC50 … of CEA-expressing MKN45 tumor cells”) in [1] is 0.16 nM. In addition, the EC50 in experiment [2] is 0.06 nM.

B2: 2+1 4-1BB (20H4.9)/CEA(T84.66-LCHA) human IgG1 PGLALA, (G4S)4 hole-VH (bispecific antibody)
heavy 1: QVQLQQWGAGLLKPSETLSLTCAVYGGSFSGYYWSWIRQSPEKGLEWIGEINHGGYVTYNPSLESRVTISVDTSKNQFSLKLSSVTAADTAVYYCARDYGPGNYDWYFDLWGRGTLVTVSSASTKGPSVFPLAPSSKSTSGGTAALGCLVKDYFPEPVTVSWNSGALTSGVHTFPAVLQSSGLYSLSSVVTVPSSSLGTQTYICNVNHKPSNTKVDKKVEPKSCDKTHTCPPCPAPEAAGGPSVFLFPPKPKDTLMISRTPEVTCVVVDVSHEDPEVKFNWYVDGVEVHNAKTKPREEQYNSTYRVVSVLTVLHQDWLNGKEYKCKVSNKALGAPIEKTISKAKGQPREPQVCTLPPSRDELTKNQVSLSCAVKGFYPSDIAVEWESNGQPENNYKTTPPVLDSDGSFFLVSKLTVDKSRWQQGNVFSCSVMHEALHNHYTQKSLSLSPGGGGGSGGGGSGGGGSGGGGSQVQLVQSGAEVKKPGSSVKVSCKASGFNIKDTYMHWVRQAPGQGLEWMGRIDPANGNSKYVPKFQGRVTITADTSTSTAYMELSSLRSEDTAVYYCAPFGYYVSDYAMAYWGQGTLVTVSS
heavy 2: not shown
light: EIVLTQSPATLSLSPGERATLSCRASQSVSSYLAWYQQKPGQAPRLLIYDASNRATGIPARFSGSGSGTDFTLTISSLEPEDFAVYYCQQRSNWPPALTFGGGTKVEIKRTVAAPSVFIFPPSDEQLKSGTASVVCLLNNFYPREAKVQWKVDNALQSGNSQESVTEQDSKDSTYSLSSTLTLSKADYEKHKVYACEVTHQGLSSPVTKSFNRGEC
notes: also called 4-1BB (20H4.9)×CEA (T84.66-LCHA) 2+1
B2: in [1], the “EC50 … of CEA-expressing MKN45 tumor cells” value is 0.19 nM. Besides, the EC50 in [2] came out at 0.07 nM.

B3: 4-1BB (20H4.9)/FAP (4B9) P329GLALA IgG1 2+1 (hole-VH) (bispecific antibody)
heavy 1: QVQLQQWGAGLLKPSETLSLTCAVYGGSFSGYYWSWIRQSPEKGLEWIGEINHGGYVTYNPSLESRVTISVDTSKNQFSLKLSSVTAADTAVYYCARDYGPGNYDWYFDLWGRGTLVTVSSASTKGPSVFPLAPSSKSTSGGTAALGCLVKDYFPEPVTVSWNSGALTSGVHTFPAVLQSSGLYSLSSVVTVPSSSLGTQTYICNVNHKPSNTKVDKKVEPKSCDKTHTCPPCPAPEAAGGPSVFLFPPKPKDTLMISRTPEVTCVVVDVSHEDPEVKFNWYVDGVEVHNAKTKPREEQYNSTYRVVSVLTVLHQDWLNGKEYKCKVSNKALGAPIEKTISKAKGQPREPQVCTLPPSRDELTKNQVSLSCAVKGFYPSDIAVEWESNGQPENNYKTTPPVLDSDGSFFLVSKLTVDKSRWQQGNVFSCSVMHEALHNHYTQKSLSLSPGGGGGSGGGGSGGGGSGGGGSEVQLLESGGGLVQPGGSLRLSCAASGFTFSSYAMSWVRQAPGKGLEWVSAIIGSGASTYYADSVKGRFTISRDNSKNTLYLQMNSLRAEDTAVYYCAKGWFGGFNYWGQGTLVTVSS
heavy 2: not shown
light: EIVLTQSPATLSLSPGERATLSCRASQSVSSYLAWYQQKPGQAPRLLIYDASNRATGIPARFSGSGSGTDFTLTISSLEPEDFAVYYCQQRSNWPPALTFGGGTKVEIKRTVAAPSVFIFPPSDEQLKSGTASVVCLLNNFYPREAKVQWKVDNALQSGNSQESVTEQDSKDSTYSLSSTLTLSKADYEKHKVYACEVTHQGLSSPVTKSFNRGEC
notes: also called 4-1BB (20H4.9)×FAP (4B9) 2+1; 20H4.9/4B9 2+1
B3 registered an EC50 in experiment [3] of 0.1 nM. Besides, in experiment [4], the EC50 worked out at 0.1 nM. For the same molecule, the EC50 in experiment [5] came to 0.7 nM. Also, in [6], the “EC50 of human PBMC activation curves, % CD25+ CD4 (with NIH/3T3-huFAP cells and anti-CD3)” value is 0.005 nM; the “EC50 of human PBMC activation curves, % CD25+ CD8 (with NIH/3T3-huFAP cells and anti-CD3)” value is 0.02 nM; the “EC50 of human PBMC activation curves, % proliferating CD4 (with NIH/3T3-huFAP cells and anti-CD3)” value came out at 0.004 nM; the “EC50 of human PBMC activation curves, % proliferating CD8 (with NIH/3T3-huFAP cells and anti-CD3)” value was 0.001 nM. Further, in experiment [7], the EC50 is 1.6 nM and the “EC50 interval” value was 1.2 to 2.3 nM. The molecule further registered an EC50 in experiment [8] of 1.7 nM. For the same molecule, in [9], the “EC50 of activation of the NFκB signaling pathway (luciferase, HeLa-hu4-1BB-NFκB-luc), no FAP+ cells” value is 0.73 nM; the “EC50 of activation of the NFκB signaling pathway (luciferase, HeLa-hu4-1BB-NFκB-luc), with 3T3-huFAP cells” value stood at 0.07 nM; the “EC50 of activation of the NFκB signaling pathway (luciferase, HeLa-hu4-1BB-NFκB-luc), with WM-266-4 cells” value was 0.08 nM.

B4: 4-1BB (20H4.9)/FAP (4B9) P329GLALA IgG1 4+1 (hole-VH) (bispecific antibody)
heavy 1: QVQLQQWGAGLLKPSETLSLTCAVYGGSFSGYYWSWIRQSPEKGLEWIGEINHGGYVTYNPSLESRVTISVDTSKNQFSLKLSSVTAADTAVYYCARDYGPGNYDWYFDLWGRGTLVTVSSASTKGPSVFPLAPSSKSTSGGTAALGCLVKDYFPEPVTVSWNSGALTSGVHTFPAVLQSSGLYSLSSVVTVPSSSLGTQTYICNVNHKPSNTKVDKKVEPKSCDGGGGSGGGGSQVQLQQWGAGLLKPSETLSLTCAVYGGSFSGYYWSWIRQSPEKGLEWIGEINHGGYVTYNPSLESRVTISVDTSKNQFSLKLSSVTAADTAVYYCARDYGPGNYDWYFDLWGRGTLVTVSSASTKGPSVFPLAPSSKSTSGGTAALGCLVKDYFPEPVTVSWNSGALTSGVHTFPAVLQSSGLYSLSSVVTVPSSSLGTQTYICNVNHKPSNTKVDKKVEPKSCDKTHTCPPCPAPEAAGGPSVFLFPPKPKDTLMISRTPEVTCVVVDVSHEDPEVKFNWYVDGVEVHNAKTKPREEQYNSTYRVVSVLTVLHQDWLNGKEYKCKVSNKALGAPIEKTISKAKGQPREPQVCTLPPSRDELTKNQVSLSCAVKGFYPSDIAVEWESNGQPENNYKTTPPVLDSDGSFFLVSKLTVDKSRWQQGNVFSCSVMHEALHNHYTQKSLSLSPGGGGGSGGGGSGGGGSGGGGSEVQLLESGGGLVQPGGSLRLSCAASGFTFSSYAMSWVRQAPGKGLEWVSAIIGSGASTYYADSVKGRFTISRDNSKNTLYLQMNSLRAEDTAVYYCAKGWFGGFNYWGQGTLVTVSS
heavy 2: not shown
light: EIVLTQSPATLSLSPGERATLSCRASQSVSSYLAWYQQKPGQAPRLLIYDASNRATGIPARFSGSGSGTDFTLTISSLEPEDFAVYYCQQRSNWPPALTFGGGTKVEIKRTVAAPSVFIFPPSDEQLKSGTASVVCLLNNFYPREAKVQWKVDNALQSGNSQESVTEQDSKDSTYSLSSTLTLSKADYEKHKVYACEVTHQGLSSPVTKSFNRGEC
notes: also called 4-1BB (20H4.9)×FAP (4B9) 4+1; 20H4.9/4B9 4+1
For B4, in experiment [3], the EC50 was 0.1 nM. The molecule also displayed an EC50 in experiment [4] of 0.1 nM. In addition, the EC50 in [5] was found to be 1.6 nM. Besides, in [6], the “EC50 of human PBMC activation curves, % CD25+ CD4 (with NIH/3T3-huFAP cells and anti-CD3)” value came to 0.006 nM; the “EC50 of human PBMC activation curves, % CD25+ CD8 (with NIH/3T3-huFAP cells and anti-CD3)” value came out at 0.009 nM; the “EC50 of human PBMC activation curves, % proliferating CD4 (with NIH/3T3-huFAP cells and anti-CD3)” value turned out to be 0.003 nM; the “EC50 of human PBMC activation curves, % proliferating CD8 (with NIH/3T3-huFAP cells and anti-CD3)” value was 0.002 nM. Moreover, the EC50 in experiment [8] worked out at 2 nM. For the same molecule, in [10], the EC50 was 0.5 nM and the “EC50 interval” value lay within 0.3 to 0.7 nM. Further, in [9], the “EC50 of activation of the NFκB signaling pathway (luciferase, HeLa-hu4-1BB-NFκB-luc), no FAP+ cells” value amounted to 0.13 nM; the “EC50 of activation of the NFκB signaling pathway (luciferase, HeLa-hu4-1BB-NFκB-luc), with 3T3-huFAP cells” value came to 0.04 nM; the “EC50 of activation of the NFκB signaling pathway (luciferase, HeLa-hu4-1BB-NFκB-luc), with WM-266-4 cells” value is 0.05 nM.

B5: 2+1 4-1BB (20H4.9)/CEA(A5B7P) human IgG1 PGLALA, CEA with CHCL crossfab (bispecific antibody)
heavy 1: not shown
heavy 2: QVQLQQWGAGLLKPSETLSLTCAVYGGSFSGYYWSWIRQSPEKGLEWIGEINHGGYVTYNPSLESRVTISVDTSKNQFSLKLSSVTAADTAVYYCARDYGPGNYDWYFDLWGRGTLVTVSSASTKGPSVFPLAPSSKSTSGGTAALGCLVEDYFPEPVTVSWNSGALTSGVHTFPAVLQSSGLYSLSSVVTVPSSSLGTQTYICNVNHKPSNTKVDEKVEPKSCDKTHTCPPCPAPEAAGGPSVFLFPPKPKDTLMISRTPEVTCVVVDVSHEDPEVKFNWYVDGVEVHNAKTKPREEQYNSTYRVVSVLTVLHQDWLNGKEYKCKVSNKALGAPIEKTISKAKGQPREPQVCTLPPSRDELTKNQVSLSCAVKGFYPSDIAVEWESNGQPENNYKTTPPVLDSDGSFFLVSKLTVDKSRWQQGNVFSCSVMHEALHNHYTQKSLSLSPGK
light 1: not shown
light 2: QTVLSQSPAILSASPGEKVTMTCRASSSVTYIHWYQQKPGSSPKSWIYATSNLASGVPARFSGSGSGTSYSLTISRVEAEDAATYYCQHWSSKPPTFGGGTKLEIKSSASTKGPSVFPLAPSSKSTSGGTAALGCLVKDYFPEPVTVSWNSGALTSGVHTFPAVLQSSGLYSLSSVVTVPSSSLGTQTYICNVNHKPSNTKVDKKVEPKSC
notes: also called 4-1BB (20H4.9)×CEA (A5B7P) 2+1 CHCL crossfab; knob-CHCL crossfab
For B5, the “EC50 … of CEA-expressing MKN45 tumor cells” value in [1] was found to be 0.09 nM. Also, in [2], the response was half-maximal at 0.06 nM (EC50).
